Positions count from the first letter of the chain named. Names and notes keep the numbering of the source.
T1: human ActRIIB (human, UniProt Q13705 19-137, limits assumed)
T1 construct: antigen in MSD-SET; also called ACVR2B; ActR2B
T1 sequence: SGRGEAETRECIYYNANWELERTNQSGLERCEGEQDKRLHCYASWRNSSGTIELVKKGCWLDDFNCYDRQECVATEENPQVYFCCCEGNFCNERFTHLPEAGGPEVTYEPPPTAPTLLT

B1: Bimagrumab (antibody, V domains shown)
VH: QVQLVQSGAEVKKPGASVKVSCKASGYTFTSSYINWVRQAPGQGLEWMGTINPVSGSTSYAQKFQGRVTMTRDTSISTAYMELSRLRSDDTAVYYCARGGWFDYWGQGTLVTVSS
VL: QSALTQPASVSGSPGQSITISCTGTSSDVGSYNYVNWYQQHPGKAPKLMIYGVSKRPSGVSNRFSGSKSGNTASLTISGLQAEDEADYYCGTFAGGSYYGVFGGGTKLTVL
B2: Antibody Biiramooscht (antibody, V domains shown)
VH: B1 VH
VL: B1 VL with P57E, S97A
notes: full-length IgG
B3: Ochsamaulsalat Fab (Fab, V domains shown)
VH: B1 VH with P53A
VL: B1 VL with Y32R, P57E, S97D
notes: Fab
B4: Antibody Floischbrühsupp (antibody, V domains shown)
VH: B1 VH with P53A
VL: B1 VL with Y32F, Y51K, P57E, S97A
notes: full-length IgG
B5: Antibody Springerle (antibody, V domains shown)
VH: B1 VH
VL: B1 VL with P57E, Y99R
notes: full-length IgG
B6: Antibody Ochsauga (antibody, V domains shown)
VH: B1 VH with P53A, Y104V
VL: B1 VL with V29I, P57E
notes: full-length IgG
B7: Antibody Hasaschlegel (antibody, V domains shown)
VH: B1 VH with P53A
VL: B1 VL with N33D, Y51H, P57E
notes: full-length IgG
B8: Antibody Dürrfloischeggla (antibody, V domains shown)
VH: B1 VH with P53A, T74V
VL: B1 VL with Y34V, Y51S, P57E, S97K
notes: full-length IgG
B9: Antibody Bäratatza (antibody, V domains shown)
VH: B1 VH with P53A, G99S
VL: B1 VL with R56Q, P57Q
notes: full-length IgG
B10: Antibody Pfitzauf (antibody, V domains shown)
VH: B1 VH
VL: B1 VL with Y32G, P57E, S97K
notes: full-length IgG
B11: Antibody Hutzelbrot (antibody, V domains shown)
VH: B1 VH with P53A
VL: B1 VL with Y32K, P57Q, S97D
notes: full-length IgG
B12: Antibody Bäradreck (antibody, V domains shown)
VH: B1 VH with A16S, M70I, R72A, I76T, R85S, D89E
VL: B1 VL with A8R, I18V, S61P, N62D
notes: full-length IgG
B13: Soidawürstle, Mouse IgG2a-PALALA (antibody, V domains shown)
VH: B1 VH with K12R, A16S, M70I, R72A, I76T, R85S, D89E
VL: B1 VL with A8R, I18V, Y34R, P57E, S61P, N62D, S97R
notes: mouse IgG2a constant region with PALALA
B14: Soidawürstle, Human IgG1-PALALA-YTE (antibody, V domains shown)
VH: B1 VH with K12R, A16S, M70I, R72A, I76T, R85S, D89E
VL: B1 VL with A8R, I18V, Y34R, P57E, S61P, N62D, S97R
notes: human IgG1 with PA-LALA (L234A/L235A/P329A) and YTE (M252Y/S254T/T256E), EU numbering
B15: Soidawürstle, Human IgG1-PALALA (antibody, V domains shown)
VH: B1 VH with K12R, A16S, M70I, R72A, I76T, R85S, D89E
VL: B1 VL with A8R, I18V, Y34R, P57E, S61P, N62D, S97R
notes: human IgG1 with PA-LALA (L234A/L235A/P329A), EU numbering
B16: Schwardamaga, Mouse IgG2a-PALALA (antibody, V domains shown)
VH: B1 VH with A16S, P53A, M70I, R72A, I76T, R85S, D89E
VL: B1 VL with A8R, I18V, Y32A, L48P, K55R, S61P, N62D, S97K
notes: as for B13
B17: Schwardamaga, Human IgG1-PALALA (antibody, V domains shown)
VH: B1 VH with A16S, P53A, M70I, R72A, I76T, R85S, D89E
VL: B1 VL with A8R, I18V, Y32A, L48P, K55R, S61P, N62D, S97K
notes: as for B15
B18: Schwardamaga, Human IgG1-PALALA-YTE (antibody, V domains shown)
VH: B1 VH with A16S, P53A, M70I, R72A, I76T, R85S, D89E
VL: B1 VL with A8R, I18V, Y32A, L48P, K55R, S61P, N62D, S97K
notes: as for B14
B19: Ofaschlupfer, Mouse IgG2a-PALALA (antibody, V domains shown)
VH: B1 VH with A16S, P53A, M70I, R72A, I76T, R85S, D89E
VL: B1 VL with A8R, I18V, Y32K, P57E, S61P, N62D, S97K
notes: as for B13
B20: Ofaschlupfer, Human IgG1-PALALA (antibody, V domains shown)
VH: B1 VH with A16S, P53A, M70I, R72A, I76T, R85S, D89E
VL: B1 VL with A8R, I18V, Y32K, P57E, S61P, N62D, S97K
notes: as for B15
B21: Bäradreck Fab (Fab, V domains shown)
VH: B1 VH with A16S, M70I, R72A, I76T, R85S, D89E
VL: B1 VL with A8R, I18V, S61P, N62D
notes: Fab
B22: Bebballesgmias Fab (Fab, V domains shown)
VH: B1 VH with A16S, T28K, M70I, R72A, I76T, R85S, D89E
VL: B1 VL with A8R, I18V, S58R, S61P, N62D
notes: Fab

molecular target: T2, ActRIIA and ActRIIB (on TGFB/SMAD SBE Reporter HEK293 cells) (human); experiment: cell-based or functional assay

| IC50, Activin SMAD RGA [nM] | IC50, Myostatin SMAD RGA [nM] | Binder |
| --- | --- | --- |
| 0.5 | – | B1 |
| 0.21 | 0.27 | B2 |
| 1.5 | 2.32 | B3 |

molecular target: T3, human ActRIIA (human, UniProt P27037 20-135, limits assumed); experiment: MSD-SET
T3 construct: antigen in MSD-SET; also called ACVR2A; ActR2A
T3 sequence (P27037 20-135 limits assumed): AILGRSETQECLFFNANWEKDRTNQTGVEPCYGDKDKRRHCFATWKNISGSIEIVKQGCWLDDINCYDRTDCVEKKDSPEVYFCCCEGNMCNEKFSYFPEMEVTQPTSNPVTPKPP

| Kd [nM] | Binder |
| --- | --- |
| 0.023 | B4 |
| 0.027 | B5 |
| 0.028 | B2 |
| 0.016 | B6 |
| 0.018 | B7 |
| 0.033 | B8 |
| 0.023 | B9 |
| 0.052 | B10 |
| 0.021 | B11 |

molecular target: T1, human ActRIIB; experiment: MSD-SET

| Kd [nM] | Binder |
| --- | --- |
| 0.01 | B4 |
| 0.005 | B2 |
| 0.006 | B6 |
| 0.013 | B7 |
| 0.009 | B8 |
| 0.005 | B9 |
| 0.008 | B10 |
| 0.01 | B11 |

molecular target: T2, ActRIIA and ActRIIB (on TGFB/SMAD SBE …); experiment: cell-based or functional assay; remark: another data set of the same source

| IC50, Myostatin SMAD RGA [nM] | IC50, myostatin inhibition (SMAD RGA) [nM] | IC50 [nM] (assay not given) | IC90, Activin SMAD RGA [nM] | IC90, Myostatin SMAD RGA [nM] | IC90 [nM] (assay not given) | IC95, Activin SMAD RGA [nM] | IC95, Myostatin SMAD RGA [nM] | IC99, Activin SMAD RGA [nM] | IC99, Myostatin SMAD RGA [nM] | Binder |
| --- | --- | --- | --- | --- | --- | --- | --- | --- | --- | --- |
| 0.56 | 0.292 | 0.517 | 9.38 | 13.5 | 8.07 | 37.9 | 55.2 | 829 | 2680 | B1 |
| 0.394 | – | – | 4.69 | 2.62 | – | – | – | – | – | B4 |
| – | – | 0.0946 | 1.38 | – | 1.5 | – | – | – | – | B5 |
| 0.222 | – | 0.086 | 1.58 | 2.78 | 1.16 | – | – | – | – | B2 |
| 0.327 | – | – | 3.15 | 2.21 | – | – | – | – | – | B6 |
| 0.977 | – | – | 5.56 | 6.59 | – | – | – | – | – | B7 |
| 0.679 | – | – | 4.86 | 6.09 | – | – | – | – | – | B8 |
| 0.0537 | – | – | 2.14 | 0.491 | – | – | – | – | – | B9 |
| 0.0984 | – | – | 3.03 | 1.35 | – | – | – | – | – | B10 |
| 0.255 | 0.255 | – | 4.99 | 4.05 | – | – | – | – | – | B12 |
| 0.73 | – | – | 3.62 | 3.06 | – | – | – | – | – | B11 |

same assay, conditions: not given

| IC50, Activin SMAD RGA [nM] | IC50 fold difference to bimagrumab (assay not given) [fold] | IC90 fold difference to bimagrumab (assay not given) [fold] | Binder |
| --- | --- | --- | --- |
| 0.324 | – | – | B4 |
| 0.094 | 5.46 | 5.4 | B5 |
| 0.161 | 6.02 | 6.98 | B2 |
| 0.238 | – | – | B6 |
| 0.722 | – | – | B7 |
| 0.423 | – | – | B8 |
| 0.138 | – | – | B9 |
| 0.231 | – | – | B10 |
| 0.257 | – | – | B12 |
| 0.422 | – | – | B11 |

molecular target: T3, human ActRIIA; experiment: MSD-SET; remark: another data set of the same source

| Kd [nM] | Binder |
| --- | --- |
| 0.027 | B13 |
| 0.034 | B14 |
| 0.025 | B15 |
| 0.039 | B16 |
| 0.036 | B17 |
| 0.04 | B18 |

molecular target: T1, human ActRIIB; experiment: MSD-SET; remark: another data set of the same source

| Kd [nM] | Binder |
| --- | --- |
| 0.004 | B19 |
| 0.003 | B20 |
| 0.003 | B13 |
| 0.005 | B14 |
| 0.006 | B15 |
| 0.016 | B16 |
| 0.011 | B17 |
| 0.013 | B18 |

molecular target: T3, human ActRIIA; experiment: MSD-SET; remark: another data set of the same source

| Fold Difference to bimagrumab [fold] | Kd [nM] | Binder |
| --- | --- | --- |
| 49.5 | 0.023 | B9 |

molecular target: T3, human ActRIIA; experiment: MSD-SET; remark: another data set of the same source

| Kd [nM] | Binder |
| --- | --- |
| 0.655 | B21 |
| 0.285 | B22 |
| 0.112 | B12 |

molecular target: T1, human ActRIIB; experiment: MSD-SET; remark: another data set of the same source

| Kd [nM] | Binder |
| --- | --- |
| 0.0014 | B21 |
| 0.0638 | B12 |

molecular target: T2, ActRIIA and ActRIIB (on TGFB/SMAD SBE …); experiment: not given

| IC50 (read off the curve); Activin-stimulated SMAD reporter gene assay [nM] | Binder |
| --- | --- |
| 0.3 | B1 |

molecular target: T2, ActRIIA and ActRIIB (on TGFB/SMAD SBE …); experiment: cell-based or functional assay; remark: another data set of the same source

| IC50, Myostatin SMAD RGA [nM] | Binder |
| --- | --- |
| 0.292 | B1 |

molecular target: T2, ActRIIA and ActRIIB (on TGFB/SMAD SBE …); experiment: not given; remark: another data set of the same source

| IC50 (read off the curve); Myostatin-stimulated SMAD reporter gene assay [nM] | Binder |
| --- | --- |
| 0.4 | B1 |

molecular target: T3, human ActRIIA; experiment: MSD-SET; remark: another data set of the same source

| Kd [nM] | Binder |
| --- | --- |
| 0.028 | B2 |
| 0.055 | B3 |

molecular target: T1, human ActRIIB; experiment: MSD-SET; remark: another data set of the same source

| Kd [nM] | Binder |
| --- | --- |
| 0.005 | B2 |
| 0.062 | B3 |

molecular target: T2, ActRIIA and ActRIIB (on TGFB/SMAD SBE …); experiment: cell-based or functional assay; remark: another data set of the same source

| IC50 [nM] (assay not given) | IC90 [nM] (assay not given) | IC50 fold difference to bimagrumab (assay not given) [fold] | IC90 fold difference to bimagrumab (assay not given) [fold] | Binder |
| --- | --- | --- | --- | --- |
| 0.294 | 6.57 | – | – | B1 |
| 0.105 | 2.77 | 2.8 | 2.4 | B9 |

molecular target: T3, human ActRIIA; experiment: MSD-SET; remark: another data set of the same source

| Fold Difference to bimagrumab [fold] | Kd [nM] | Binder |
| --- | --- | --- |
| 7.3 | 0.027 | B5 |
| 6.4 | 0.028 | B2 |

molecular target: T3, human ActRIIA; experiment: MSD-SET, preliminary

| Kd [nM] | Binder |
| --- | --- |
| 0.655 | B21 |
| 0.285 | B22 |
| 0.112 | B12 |

molecular target: T1, human ActRIIB; experiment: MSD-SET, preliminary

| Kd [nM] | Binder |
| --- | --- |
| 0.0563 | B21 |
| 0.0251 | B22 |
| 0.0638 | B12 |

molecular target: T2, ActRIIA and ActRIIB (on TGFB/SMAD SBE …); experiment: cell-based or functional assay; remark: another data set of the same source

| IC50, Activin SMAD RGA [nM] | IC95, Activin SMAD RGA [nM] | IC99, Activin SMAD RGA [nM] | Binder |
| --- | --- | --- | --- |
| 0.32 | 19.6 | 206 | B1 |

— patent publication US20250243286A1 (SIXPEAKS BIO, published 2025)
